By EC50 is commonly meant the concentration that produces a half-maximal response. Low values mean a more potent agent, high ones a less potent agent.

This note sets out measurements from article PMC11672854, “A High-Affinity Monoclonal Antibody Against the Pancreatic Ductal Adenocarcinoma Target, Anterior Gradient-2 (AGR2/PDIA17)” (Antibodies, 2024).

The target in experiment [1] is T1, Anterior Gradient-2 (AGR2/PDIA17), AGR2 (21-175), 6x-His tag removed (human, UniProt O95994).
Experiment [2] deals with T1, Anterior Gradient-2 (AGR2/PDIA17), AGR2 …. Nature of the experiment: ELISA; MaxiSorp plates coated with 1 µg AGR2 (wild type or mutant), PDI, TXN or BSA; varying MAb in 50 mM Tris, 140 mM NaCl, 1% BSA, 0.05% Tween 20, pH 8.0, 1 h at 37 °C; detection with Protein L-peroxidase. The settings on record: both partners purified. In general terms: In an ELISA, binding on a coated surface is turned into a signal by an enzyme label.

The target of experiment [3] is T2, LY6/PLAUR Domain Containing 3, LYPD3 (31-325) with C-terminal 6x-His tag (UniProt O95274 31-325).
T2 construct: LY6/PLAUR Domain Containing 3 (LYPD3, C4.4A), residues 31-325; also called C4.4A; source: expi293F, transfected, secreted, purified from media (HisTrap Excel); not shown: His6, C-terminal, kept
T2 sequence (looked up): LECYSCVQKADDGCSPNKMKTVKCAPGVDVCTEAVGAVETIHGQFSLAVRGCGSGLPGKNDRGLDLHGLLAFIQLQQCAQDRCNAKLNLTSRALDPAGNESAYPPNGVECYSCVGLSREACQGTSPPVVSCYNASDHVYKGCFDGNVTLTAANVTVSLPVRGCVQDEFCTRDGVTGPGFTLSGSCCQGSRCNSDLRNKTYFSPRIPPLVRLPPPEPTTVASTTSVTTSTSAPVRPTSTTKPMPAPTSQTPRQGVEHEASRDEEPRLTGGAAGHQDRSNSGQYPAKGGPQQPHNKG
The experiment is described as follows: ELISA; MaxiSorp plates coated with 1 µg AGR2 (or BSA); varying LYPD3 in 50 mM Tris, 140 mM NaCl, 1% BSA, 0.05% Tween 20, pH 8.0, 1 h at 37 °C; detection with anti-6x-His-peroxidase. As to conditions: both partners purified.

B1: S31R/A53Y/T59P (antibody, V domains shown)
VH: EVQLLESGGGLVQPGGSLRLSCAASGFTFSRYAMSWVRQAPGKGLEWVSGISYQGAHTPYADSVKGRFTISRDNSKNTLYLQMNSLRAEDTAVYYCAKTYKGFDYWGQGTLVTVSS
VL: DIQMTQSPSSLSASVGDRVTITCRASQSISSYLNWYQQKPGKAPKLLIYSASRLQSGVPSRFSGSGSGTDFTLTISSLQPEDFATYYCQQGRRMPPTFGQGTKVEIK
As for B1, the binding result in experiment [1] was “binds”.

B2: S31R/A53F/T59P (antibody, V domains shown)
VH: EVQLLESGGGLVQPGGSLRLSCAASGFTFSRYAMSWVRQAPGKGLEWVSGISFQGAHTPYADSVKGRFTISRDNSKNTLYLQMNSLRAEDTAVYYCAKTYKGFDYWGQGTLVTVSS
VL: DIQMTQSPSSLSASVGDRVTITCRASQSISSYLNWYQQKPGKAPKLLIYSASRLQSGVPSRFSGSGSGTDFTLTISSLQPEDFATYYCQQGRRMPPTFGQGTKVEIK
As for B2, the binding result in experiment [1] is on record as “binds”.

B3: affinity-matured anti-AGR2 MAb S31R (VH mutant of MAb-15, human IgG1) (antibody, V domains shown)
VH: EVQLLESGGGLVQPGGSLRLSCAASGFTFSRYAMSWVRQAPGKGLEWVSGISAQGAHTTYADSVKGRFTISRDNSKNTLYLQMNSLRAEDTAVYYCAKTYKGFDYWGQGTLVTVSS
VL: DIQMTQSPSSLSASVGDRVTITCRASQSISSYLNWYQQKPGKAPKLLIYSASRLQSGVPSRFSGSGSGTDFTLTISSLQPEDFATYYCQQGRRMPPTFGQGTKVEIK
notes: as the VH of m4 (scFv-15) with the stated change; human IgG1 heavy chain constant region; IgG1; source: expi293F, transfected, purified from media (rProteinA)
Molecule B3 returned an EC50 in experiment [2] of 0.156 nM.

B4: affinity-matured anti-AGR2 MAb S31R/A53F (VH mutant of MAb-15, human IgG1) (antibody, V domains shown)
VH: EVQLLESGGGLVQPGGSLRLSCAASGFTFSRYAMSWVRQAPGKGLEWVSGISFQGAHTTYADSVKGRFTISRDNSKNTLYLQMNSLRAEDTAVYYCAKTYKGFDYWGQGTLVTVSS
VL: DIQMTQSPSSLSASVGDRVTITCRASQSISSYLNWYQQKPGKAPKLLIYSASRLQSGVPSRFSGSGSGTDFTLTISSLQPEDFATYYCQQGRRMPPTFGQGTKVEIK
notes: as the VH of m4 (scFv-15) with the stated changes; human IgG1 heavy chain constant region; IgG1; source: expi293F, transfected, purified from media (rProteinA)
In experiment [2], B4 displayed an EC50 of 0.0385 nM.

B5: anti-AGR2 monoclonal antibody MAb-15 (VH-VL of scFv-15 in a full human IgG1 backbone) (antibody, V domains shown)
VH: EVQLLESGGGLVQPGGSLRLSCAASGFTFSSYAMSWVRQAPGKGLEWVSGISAQGAHTTYADSVKGRFTISRDNSKNTLYLQMNSLRAEDTAVYYCAKTYKGFDYWGQGTLVTVSS
VL: DIQMTQSPSSLSASVGDRVTITCRASQSISSYLNWYQQKPGKAPKLLIYSASRLQSGVPSRFSGSGSGTDFTLTISSLQPEDFATYYCQQGRRMPPTFGQGTKVEIK
notes: VH of scFv-15 (as the VH of m3); human IgG1 heavy chain constant region (full human IgG1 backbone); VL of scFv-15 (as the VL of m3); light chain constant region; IgG1; also called original anti-AGR2 antibody; parent MAb-15; source: expi293F, transfected, purified from media (rProteinA)
B5 yielded an EC50 in experiment [2] of 2.03 nM.

B6: affinity-matured anti-AGR2 MAb S31R/A53Y (VH mutant of MAb-15, human IgG1) (antibody, V domains shown)
VH: EVQLLESGGGLVQPGGSLRLSCAASGFTFSRYAMSWVRQAPGKGLEWVSGISYQGAHTTYADSVKGRFTISRDNSKNTLYLQMNSLRAEDTAVYYCAKTYKGFDYWGQGTLVTVSS
VL: DIQMTQSPSSLSASVGDRVTITCRASQSISSYLNWYQQKPGKAPKLLIYSASRLQSGVPSRFSGSGSGTDFTLTISSLQPEDFATYYCQQGRRMPPTFGQGTKVEIK
notes: as the VH of m4 (scFv-15) with the stated changes; human IgG1 heavy chain constant region; IgG1; also called anti-AGR2 MAb clone S31R/A53Y; source: expi293F, transfected, purified from media (rProteinA)
As for B6, a half-maximal effect in experiment [2] (EC50) was put at 0.0404 nM.

B7: Anterior Gradient-2 (AGR2/PDIA17), AGR2 (21-175), 6x-His tag removed (natural protein, human, UniProt O95994 21-175, looked up)
chain: RDTTVKPGAKKDTKDSRPKLPQTLSRGWGDQLIWTQTYEEALYKSKTSNKPLMIIHHLDECPHSQALKKVFAENKEIQKLAEQFVLLNLVYETTDKHLSPDGQYVPRIMFVDPSLTVRADITGRYSNRLYAYEPADTALLLDNMKKALKLLKTEL
notes: Anterior Gradient-2 (AGR2/PDIA17), human, residues 21-175; tag removed with 8x-His-TEV; also called rAGR2; recombinant AGR2; source: E. coli BL21(DE3), purified (HisTrap, TEV cleavage, second HisTrap flow-through); not shown: His6, N-terminal, cleaved
Regarding B7, the binding result in experiment [3] is “binds”.
